Band intensity data for three substances are collected here from patent publication US20100041597A1, “PEPTIDES TARGETED TO PROTEIN KINASE C ISOFORMS AND USES THEREOF” (priority 2005, published 2010).

“And” between values parts separate entries of the source, which are not always exact repeats. Identical values can stand only once.

The target of assay [1] is PKC-βI (endogenous, human cell extracts) (human) (UniProt P05771). Nature of the assay: Western blot Protocol B, IMR-32 extract, no peptide. In general terms: In western blotting, separated proteins are transferred to a membrane and probed.
In assay [2] the target is PKC-βII (endogenous, human cell extracts) (human) (UniProt P05771). The description is as above.
The target of assay [3] is PKC-ε (endogenous, human cell extracts) (human) (UniProt Q02156). Nature of the assay: Western blot Protocol B, IMR-32 extract, Band 1, no peptide.
The target is the same in assay [4]. Briefly: Western blot Protocol B, IMR-32 extract, Band 2, no peptide.

Sequence of PKC-ε (endogenous, human cell extracts) (human) (Q02156 whole entry): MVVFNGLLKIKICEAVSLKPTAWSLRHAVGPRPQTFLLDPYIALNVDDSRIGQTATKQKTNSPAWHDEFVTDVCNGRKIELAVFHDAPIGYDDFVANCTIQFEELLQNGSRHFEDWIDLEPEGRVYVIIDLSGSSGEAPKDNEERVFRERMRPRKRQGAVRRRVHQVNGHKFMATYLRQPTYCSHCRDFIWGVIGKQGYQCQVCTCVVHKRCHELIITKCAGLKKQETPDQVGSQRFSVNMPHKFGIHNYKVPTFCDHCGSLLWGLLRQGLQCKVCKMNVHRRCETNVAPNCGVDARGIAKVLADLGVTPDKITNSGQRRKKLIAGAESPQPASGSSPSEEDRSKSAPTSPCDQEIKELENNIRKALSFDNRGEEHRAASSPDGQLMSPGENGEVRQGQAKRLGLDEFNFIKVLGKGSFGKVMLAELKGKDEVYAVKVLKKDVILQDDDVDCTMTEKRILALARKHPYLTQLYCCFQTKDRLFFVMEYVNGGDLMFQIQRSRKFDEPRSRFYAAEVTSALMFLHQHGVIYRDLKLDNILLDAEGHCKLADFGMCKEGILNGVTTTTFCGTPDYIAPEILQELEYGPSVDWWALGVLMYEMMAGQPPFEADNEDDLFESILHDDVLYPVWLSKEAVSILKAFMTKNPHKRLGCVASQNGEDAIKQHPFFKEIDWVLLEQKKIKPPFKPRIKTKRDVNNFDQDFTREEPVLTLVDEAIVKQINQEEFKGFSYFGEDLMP
Sequence of PKC-βII (endogenous, human cell extracts) (human) (P05771 other isoform, or with tags, fused parts or gaps limits assumed): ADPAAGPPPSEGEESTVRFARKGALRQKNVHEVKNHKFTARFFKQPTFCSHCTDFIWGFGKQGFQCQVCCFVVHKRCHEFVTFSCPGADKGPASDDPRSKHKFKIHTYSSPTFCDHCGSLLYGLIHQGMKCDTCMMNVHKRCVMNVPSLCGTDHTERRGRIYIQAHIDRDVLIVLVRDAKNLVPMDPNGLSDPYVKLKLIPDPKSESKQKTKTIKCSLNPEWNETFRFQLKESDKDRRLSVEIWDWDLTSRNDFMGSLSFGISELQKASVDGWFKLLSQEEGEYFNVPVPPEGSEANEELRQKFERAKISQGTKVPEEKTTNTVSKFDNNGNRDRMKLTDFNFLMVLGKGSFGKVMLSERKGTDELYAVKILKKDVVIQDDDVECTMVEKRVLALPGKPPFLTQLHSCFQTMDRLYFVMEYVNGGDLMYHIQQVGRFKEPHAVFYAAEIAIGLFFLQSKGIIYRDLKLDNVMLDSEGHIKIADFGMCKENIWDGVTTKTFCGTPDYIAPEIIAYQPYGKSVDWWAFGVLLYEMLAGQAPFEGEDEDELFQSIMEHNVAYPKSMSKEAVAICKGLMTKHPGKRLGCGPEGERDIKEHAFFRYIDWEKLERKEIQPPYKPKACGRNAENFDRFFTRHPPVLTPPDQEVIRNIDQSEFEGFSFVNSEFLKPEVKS
Sequence of PKC-βI (endogenous, human cell extracts) (human) (P05771 2-671): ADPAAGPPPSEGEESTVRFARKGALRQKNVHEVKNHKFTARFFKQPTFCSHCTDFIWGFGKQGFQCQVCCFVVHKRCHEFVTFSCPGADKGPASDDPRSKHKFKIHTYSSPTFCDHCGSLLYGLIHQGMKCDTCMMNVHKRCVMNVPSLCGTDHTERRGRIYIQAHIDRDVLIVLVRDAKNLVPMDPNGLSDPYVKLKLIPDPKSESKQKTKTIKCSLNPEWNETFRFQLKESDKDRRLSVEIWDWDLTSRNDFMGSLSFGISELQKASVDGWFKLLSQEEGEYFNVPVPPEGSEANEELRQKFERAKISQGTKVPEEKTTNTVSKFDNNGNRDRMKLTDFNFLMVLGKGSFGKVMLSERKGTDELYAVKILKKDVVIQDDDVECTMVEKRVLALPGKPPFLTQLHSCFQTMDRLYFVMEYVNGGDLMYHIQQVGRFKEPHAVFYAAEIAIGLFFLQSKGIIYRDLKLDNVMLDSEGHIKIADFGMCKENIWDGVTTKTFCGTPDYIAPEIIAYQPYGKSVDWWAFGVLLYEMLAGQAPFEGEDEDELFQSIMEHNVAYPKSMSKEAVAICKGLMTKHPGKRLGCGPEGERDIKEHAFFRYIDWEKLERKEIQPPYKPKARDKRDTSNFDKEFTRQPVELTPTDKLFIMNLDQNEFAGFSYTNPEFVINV

Substance “anti-PKC βI antibody (Cat. No. SC-209, Santa Cruz Biotechnology, Inc.)” yielded a band intensity in assay [1] of 170.

“anti-PKC βII antibody (Cat. No. SC-210, Santa Cruz Biotechnology, Inc.)” gave a band intensity in assay [2] of 98.6.

With “anti-PKC ε antibody (Cat. No. SC-214, Santa Cruz Biotechnology, Inc.)”, the band intensity in assay [3] was 421 and 420 and 323; in assay [4] it was 261 and 281 and 286.
